Test: soluble on expression in E. coli; label from the status in PepcDB or PDB records

Sequence	soluble on expression in E. coli
MRVFYDKDCDLSIIQGKKVAIIGYGSQGHAHACNLKDSGVDVTVGLRSGSATVAKAEAHGLKVADVKTAVAAADVVMILTPDEFQGRLYKEEIEPNLKKGATLAFAHGFSIHYNQVVPRADLDVIMIAPKAPGHTVRSEFVKGGGIPDLIAIYQDASGNAKNVALSYACGVGGGRTGIIETTFKDETETDLFGEQAVLCGGCVELVKAGFETLVEAGYAPEMAYFECLHELKLIVDLMYEGGIANMNYSISNNAEYGEYVTGPEVINAESRAAMRNALKRIQDGEYAKMFITEGAANYPSMTAYRRNNAAHPIEQIGEKLRAMMPWIAANKIVDKSKN	soluble
MGNKQTIFTEEQLDNYQDCTFFNKKDILKLHSRFYELAPNLVPMDYRKSPIVHVPMSLIIQMPELRENPFKERIVAAFSEDGEGNLTFNDFVDMFSVLCESAPRELKANYAFKIYDFNTDNFICKEDLELTLARLTKSELDEEEVVLVCDKVIEEADLDGDGKLGFADFEDMIAKAPDFLSTFHIRI	not soluble
MSLDIEEARTTGIIDDKEAESRSESLEKAYLKTPLDPWKGEICTVSLSAAAHESRVVPISHKVGQVFEPSMDRDEARKLVLDLLDEYLFKNEKVLKIAVNLSFETKYAAKYGKYILGKVADPLIMWVRCLQIAAPQKINNPKKPTSGWGLKPATKHIFGVTMNDFSALLKKYKVNFFDEIDASKGEGLLYSAEDSDYAVQHYEYWSQIAAQISRYEEWLHKIEMPFTRVIGLMEYWGMNWDPNLATQKKQEAEIMQEQAAERIKQIAKETFNIDINTGKSGKTNEVKSLMFDYLKIPIAKYGKTGASLDQEALIDMAFMLENKLNDIDEEKYLGVSLPENWENIDPEKDPTLDKLERGAIRIAKREPHPYKEQALEVIDQLKKIQKYTTLLSSHIIGREKYLNFMSGRIHAGYSPFTETGRLNSFNPNGQNVPRPDNDEFKIRNFFVPKPGKILFFIDFSGFELRLMAWKSGDEVMTELFNTGGDMHRRTASVMTGKSEAEIVKKERTDAKAGNFGISYGGTEHALQFTFKTKYMIRKTLDECAQIVNAVKTAYKRIPEYQRKIVLEAREQGYVQTIYGYMRLLPGINSANRRDRGSAERQAANTPVQGSAADIMKKVQNEIYESIGKQEGVLSHGSADMIAQIHDEIIFEIDDDPEIVVAVEKQIKQVMEQPPVPGFPVPIEAEGSVGYRWGEKMSVESWLKQREGHHHHHH	soluble
MSNDNEVPGSMVIVAQGPDDQYAYEVPPIDSAAVAGNMFGDLIQREIYLQKNIYYPVRSIFEQGTKEKKEINKKVSDQVDGLLKQITQGKREATRQERVDVMSAVLHKMESDLEGYKKTFTKGPFIDYEKQSSLSIYEAWVKIWEKNSWEERKKYPFQQLVRDELERAVAYYKQDSLSEAVKVLRQELNKQKALKEKED	soluble
MSLNTLLMHCRPGFEGEVCAEIAEHAATLEIPGYAKSKPASAHVEFVCQDADGAERLMRRLRFADLIFPRQWARGPGFIELPESQRIEVLLAELASYPVCGSLWLEVLDTNAGKEVSTFCRKFEKPLRAALVKAGRLQEDPALPRLLLTFRSGREVFVGLAEPRNSALWPMGIPRLKFPREAPSRSTLKLEEAWHQFIPRSEWDKRLAPDMLAVDLGAAPGGWTWQLVNREMRVTAVDNGPMAENLMYSGLVDHQKVDGYQYRPRQRVDWMVCDIVEKPARTGALIETWIGEGLCREAVVNLKLPMKQRYAEVRKILQRLRESFDARGLKVAIGCKQLYHDREEVTCHLRRLEREGGSHHHHHH	soluble
MSAKNRLDVFDKKTRDVIESDLVKMRGYKRNIGSRNQEMTMKNVEKKVEQMGAKNEEMFSMISKIMQKPNSTGHLQWDSQTLADLMNKSDSFDDDQESLNMPRSSESSAMSVRNRTLERQSEPVRKSPKAAPKVKNEAGITASYVTSEMSDRRSIDEVMVRAAKNAKREEKFDLGFFKFISLAGHILESSCKHSEDQEDPSCLKCKYDRELKLEERPEMVFARNSLTIQFGRLGSIEFNALDALKMVCADRLPDVKVGASTVWQSARQDRIQQISEHQKPFDWTYTTHYKGTVTGCQVTPTTERIDMERLKRRDEILFSSSITLFEDELADHGIAQLLARVRVMRGYFFVLLRFYMRVDNVLLRVCDTRIVGNEFDGHVIREWQLREAKYGNLGHVDPEELLDVDRAWMHLPVVEEHFDRVSVDRERLF	not soluble
MRGIRDPRLIPIAEKVMEGKRLSFEDGLVLYQTKDLPTLMRLANLVRERKHGHKTYFVHSIRVSQTNICYVGCTFCAFQRRFGEEGAWDWDVDEVVAWVKERYQPGLTEIHLTAGHHPKRPFAYYLDLVRALKENFPGVQVKAWTAAEIHHFSKIARLPYREVLKALKEAGLDAMPGGGAEIFAERVRRKIARAKVSAEGWLEIHRTAHELGIPTNATMLYGHIETLEERLDHMDRLRRLQDETGGFMSFIPLAFQPDGNQLARELGKKEFTTGLDDLRNLAVARLYLDNFPHIKGYWATLTPELAQVSLDWGVTDVDGTLIEERIVHMAGSPTPQGLTKRELARIILMAGRIPVERDALYREVRVWDRVEA	soluble
MGSDKIHHHHHHMTVFILNGEEPNQEGVRYVAKLLKREKLVEDIHFSTIDEIPLDNSYVLGDHSGTYFILKKIKPNALISLDAHTDLMQDYFDHASWLAYALKDNIIKRASVIGAVLMIPTTSGTKLWKRGVKVFPALPRTKKIRGKWKAYTNLEQHGVERVLKETREFLGKEIYLSIDLDVLSPEYRIARFQHGELTLRELLDIIEAIKKNFKIIAFDVAEISFRVAKSKYGRRAIIEVFSSLKEVFE	not soluble
MGSDKIHHHHHHMWTSKQQQALDHLAATPSLLVVSDFDGTLAGFSHDAMQVPVNHVAMAALQQLTSLPSTRVALLSGRDVQGLIQVSGAAAPMIVAGSHGAESTEGGLVLNEDQQAALSAVTAALEEIATSVPGAFVEHKPYHRVLHVIRVADQQRARAALDRALALEIPGAKIAEGKWIAEASVVDFTKGTWIKAAQEQYRPSVTLFLGDDTTDENGFAVLGCNDVGIKVGAGDTCATVRLESIDRVGQFLSSLADARSAAQQ	not soluble
AGHDGSQLAARLDLPQGPVLATALFAHCFTCSKDIPAARRIAARLAAMGIAVLRFDFTGLGHSEGEFANTTFTSNVGDLAAAARYLAGRDMAPALLIGHSLGGAAVLRARAQIASVRAVVTIGAPADPGHVAHHFETALPRIQAEGAAEVCLGGRPFRIGRDFVEDIAASALQPAIADLRAALLVLHAPRDETVSIDNASQIFMAAKHPKSFVTLDDADHLISRARDAEYAAEVIAAWAGRYVD	not soluble
GHMDIAEPAELDADELKRVLEALLLVIDTPVTADALAAATEQPVYRVAAKLQLMADELTGRDSGIDLRHTSEGWRMYTRARFAPYVEKLLLDGARTKLTRAALETLAVVAYRQPVTRARVSAVRGVNVDAVMRTLLARGLITEVGTDADTGAVTFATTELFLERLGLTSLSELPDIAPLLPDVDTIDDLSESLDSEPRFIKLTGELASEQTLSFDVDRD	soluble
HDLALSGNAYKVRLFLSLIGREATLRPVDFLNREHKTQAFLRMNPRGQIPVLEDGELQLGDSHAILVYLARRHADPVWYPLDPVSQGRIAYWLSYSANEVQNGPASARLITRFNLPLDREQTHQRGLEVLRLVDRHLAEHRWLAQGEQPSIADVALYPYLALAPEGGLALDHYPALNAWIARIRALPGYIPMPGL	not soluble
MAAGSGVVPPPLGAGLCTVKVEEDSPGNQESSGSGDWQNPETSRKQFRQLRYQEVAGPEEALSRLWELCRRWLRPELLSKEQIMELLVLEQFLTILPQELQAYVRDHSPESGEEAAALARTLQRALDRASPQVRLEWTLHGTREMA	soluble
MSLFQITKVEARIANYSLHQDRVIITSLGIHDRSRYLIITLTDELENQGFGEAATVMIWSGEAAETGLWIVQNRITPLLTGSHYDHPSEILTILDRALQGNPFLKASIDIAAWDLWARRQEKPVSALIGDRKPVESVPTRFSIGAYSVEDTVRLAVESWEAGIRTLKIKTGVPGLDDVARLKAVRERLGKEPILTIDANGAYQTEDQAVAAIEELLPFNLALVEQPTPRDRIGMMARVKQRVDVPILADESIFTPGELAEALDCDAMDLLSLYPGKNGGFTNSLKMAQTAQNAGKYCVIGSNMETDLGQAAMVCLAASLTAFPVEEYASDLMTGMIYTASSTSPALELNNGRLLTPLGTGFGVEPLHDEGHHHHHH	soluble
MDFHRALSALFTNQAAVQPLLGSLGFPFNDGTSILTTALAAQSGGKKLDTPLGILPFDSLPTTNLLTPTKKIKLEDELCASPVSSRSSTVSSSHFSSPQRSPSRKMSVPIPEEKKDSAYFERRRKNNDAAKRSRDARRQKEEQIASKAHALERENMQLRGKVSSLEQEAAQLRFLLFSKISPANSEVSCESNDSTETNDSNDSKSDSTIEV	not soluble
GSEELLDLFNRQVTQEFTASQVYLSASIWFDQNDWEGMAAYMLAESAEEREHGLGFVDFANKRNIPIELQAVPAPVSCAEWSSPEDVWQSILELEQANTRSLLNLAEAASTCHDFAVMAFLNPFHLQQVNEEDKIGSILAKVTDENRTPGLLRSLDVVSFLGPCLFRS	soluble
MSLKQTNPFVYSNDNKRYHTWNYCLREEFGQKTYKVALDGGFDCPNRDGTVAHGGCTFCSAAGSGDFAGNRALDLKIQFQQVRDKMQTKWKDGKCIAYFQAFTNTHAPVAELREKFETVLNEPGVVGLSIATRPDCLPDDVVEYLAELNERTYLWLELGLQSAHDETGRLINRAHDYDCYVEGVRKLQKHNIRICTHIINGLPKETPEMMMETTRKVVESGVDGIKIHLLHLLKGTPMVEDYKKGDLEFLTRDGYVNLVADQLEILPPEMVIHRITGDGGVDDLIGPVWSLNKFEVLNAIDAELVRRDSWQGKLYQPVEVNAKEGHHHHHH	soluble
MSLKASELKKGFAIISNGKTLLIKDIEVTTPGGRGGSKIYKLRCTDLNTGARVDERYKSDDVLDTVEMNKRPISFSYIDGDEYVFMNNDDYTPYNFKKDEIEDELLFITEEIQGMSVVLVDGEAVAIELPSSVEMVIEETDPSIKGASASSRTKPARMPTGLVVQVPEYIATGDRIVINTAERKFMNRAEGHHHHHH	soluble
MNEYKKEIKISVRNLVEFVLRTGDIDSSFTGSSRAVEGTRLHKKIQKTQGKEYSPEVFLKTTVEFDDFFLTVEGRADGVINEDGCFIIDEIKTTTAPLELIDEFYNPLHWAQAKCYAYIHALNENLEKIKIRLTYCHLETEEIKYLVSEFDFAELSRFFEELVEKYYVWAKLACDWQVKRDCSIKVLEFPFEKYRKGQRKLAVAVYKTVTEGKKLYVKAPTGIGKTISTLFPAVKAIGEGHASKIFYLTAKTVTGGVAKEAFAKMRQKGLLFKTVTLTAKEKICFMEKAVCKPEKCEYAKGHFDRVNEAIMDILTNEDEIKREVIEEYAKAHRVCPFELALDLTIWADAVICDYNYVFDPRVYLKRFFSDAGGDYIFLVDEAHNLVDRAREMFSAQLSKKSFLELKKAMKEESPKISKTLQKLNTFMLGMKKLCGDNDYFVSKEEQSEIYLLLRRLIGECEEYLTDRAKNGIENEDLLQLYFDALMYVRIAEFYDDRYVTFVEKSDNDVRIKLFCIDPSHLLSEALKRGKAAVFFSATLLPLSYFKEVLGGGPDDYTMCLDSPFEVNNRCLMIADRISTRYQDRGKSCDEVVQCIKSIVCAKKGNYIAFFPSYQYMNMIYELFEKECGDIKLYVQSSSMTEKEREDFLERFKADPQETVLGFCVLGGIFSEGIDLRDDRLIGAIIVGVGLPQICIERDIIRDYYQNKNRLGFEYSYMYPGMNKVMQAAGRVIRSENDKGVILLIDDRFTNPSYLALFPNEWFPYIRVTGNNISEHVKKFWSRHGA	soluble
MGSDKIHHHHHHMKISPLCPSCLLGRVYYEAKLVTDDEDLISQCVDESLKILAENYSSAPINAHLATRIHRRVYEILGVEDPYAEVKARANEVARQVLPLAKEIVEGSDDPFKTAVIVSIVGNNFDYGVQGHKVVEEEFRDFLKRKVQEGLKINDTERIKELSSGKVVYLTDNAGEIFFDTLLMKEIKRRCEKLTAVVRGRPIISDATIEDARLARVDKIADELLTNGKGAIGIIMDELPDETRKALEEADLIVAKGMANYECLSDGSLKPIAFLLTAKCEPVARDIGVNVGDMVAKVVE	not soluble
